Article PMC5934765

Target: α-synuclein (AS) expressed in non-mitotic SH-SY5Y cells, P37840
Experiment: proximity ligation
Details: remark: other sources report otherwise

B1: SERCA2 in SH-SY5Y cells, P16615 1-1042 (enzyme)
chain: MENAHTKTVEEVLGHFGVNESTGLSLEQVKKLKERWGSNELPAEEGKTLLELVIEQFEDLLVRILLLAACISFVLAWFEEGEETITAFVEPFVILLILVANAIVGVWQERNAENAIEALKEYEPEMGKVYRQDRKSVQRIKAKDIVPGDIVEIAVGDKVPADIRLTSIKSTTLRVDQSILTGESVSVIKHTDPVPDPRAVNQDKKNMLFSGTNIAAGKAMGVVVATGVNTEIGKIRDEMVATEQERTPLQQKLDEFGEQLSKVISLICIAVWIINIGHFNDPVHGGSWIRGAIYYFKIAVALAVAAIPEGLPAVITTCLALGTRRMAKKNAIVRSLPSVETLGCTSVICSDKTGTLTTNQMSVCRMFILDRVEGDTCSLNEFTITGSTYAPIGEVHKDDKPVNCHQYDGLVELATICALCNDSALDYNEAKGVYEKVGEATETALTCLVEKMNVFDTELKGLSKIERANACNSVIKQLMKKEFTLEFSRDRKSMSVYCTPNKPSRTSMSKMFVKGAPEGVIDRCTHIRVGSTKVPMTSGVKQKIMSVIREWGSGSDTLRCLALATHDNPLRREEMHLEDSANFIKYETNLTFVGCVGMLDPPRIEVASSVKLCRQAGIRVIMITGDNKGTAVAICRRIGIFGQDEDVTSKAFTGREFDELNPSAQRDACLNARCFARVEPSHKSKIVEFLQSFDEITAMTGDGVNDAPALKKAEIGIAMGSGTAVAKTASEMVLADDNFSTIVAAVEEGRAIYNNMKQFIRYLISSNVGEVVCIFLTAALGFPEALIPVQLLWVNLVTDGLPATALGFNPPDLDIMNKPPRNPKEPLISGWLFFRYLAIGCYVGAATVGAAAWWFIAADGGPRVSFYQLSHFLQCKEDNPDFEGVDCAIFESPYPMTMALSVLVTIEMCNALNSLSENQSLLRMPPWENIWLVGSICLSMSLHFLILYVEPLPLIFQITPLNVTQWLMVLKISLPVILMDETLKFVARNYLEPGKECVQPATKSCSFSACTDGISWPFVLLIMPLVIWVYSTDTNFSDMFWS
For B1, which reduction of the PLA signal by 0.5 μM CPA is on record?
The reduction of the PLA signal by 0.5 μM CPA was 50%.
